In patent US20250019439A1 (Adimab, published 2025):

How the values were obtained:
ADI-22523 IgG = molecular target: T1, ADI-22523 IgG; test: BLI; tip anti-ID IgG, solution ADI-22523 IgG
T1 construct: anti-CD3 IgG
Protocol: (§1) ForteBio affinity measurements were performed generally as previously described (Estep et al., MAbs. 2013 5(2):270-8). Briefly, ForteBio affinity measurements were performed by loading antibody IgG or Fabs on-line onto AHC sensors. Sensors were equilibrated off-line in assay buffer for 30 minutes and then monitored on-line for 60 seconds for baseline establishment. For avid binding measurement, sensors with loaded antibodies were exposed to IgG or Fab solutions for 3 minutes, afterwards they were transferred to assay buffer for 3 minutes for off-rate measurement. Kinetics data were fit using a 1:1 binding model in the data analysis software provided by ForteBio to obtain equilibrium dissociation constant (KD=koff/kₒₙ) values. In each column, tip-immobilized antibodies are listed first and solution antibodies second.

ADI-26915 = molecular target: T2, ADI-26915; test: SPR Carterra, yeast anti-ID
T2 construct: anti-CD3 antibody made in CHO cells, captured by anti-human Fc
Protocol: (§2) Kinetic analysis was conducted at 25° C. in an HBSTE running buffer system (Carterra Cat #3630) using a Carterra LSA (Carterra USA, Salt Lake City, UT). The sample compartment was maintained at 20° C. for the duration of each experiment.
(§3) For antibody capture experiments, a goat anti-human Fc antibody (Jackson ImmunoResearch) was covalently coupled to an HC30M sensor chip surface via standard amine coupling (1:1 EDC:NHS) and then blocked with ethanolamine (1.0 M, pH 8.5). Covalent coupling steps were performed in 25 mM MES buffer (Carterra, Cat #3625) plus 0.05% Tween20. The anti-CD3 antibodies (100 nM in running buffer) were flowed over discrete regions of interest on the chip surface for 5 minutes. […] Dissociation of the anti-idiotype antibodies was monitored for 300s. Several blank buffer samples were injected over the entire chip surface at the start of each non-regenerative kinetic cycle. The preceding blank buffer injection was used for blank surface subtraction. At the end of each non-regenerative kinetic cycle, all surfaces were regenerated via two 30s injections of 10 mM glycine, pH 1.7.
(§4) For data processing and fitting, sensorgrams were double reference subtracted with a baseline drift correction of 4 RU. Sensorgrams were y-aligned and baseline corrected, filtered and cropped to include only the association and dissociation steps. Data was fitted to a 1:1 binding model using Carterra Kinetics Data Analysis software version 1.7.1.3055.

ADI-26909 = molecular target: T3, ADI-26909; test: SPR Carterra, yeast anti-ID
T3 construct: anti-CD3 antibody made in CHO cells, captured by anti-human Fc
Protocol: as §2, §3, §4

ADI-70326 = molecular target: T4, ADI-70326; test: SPR Carterra, yeast anti-ID
T4 construct: anti-CD3 antibody made in CHO cells, captured by anti-human Fc
Protocol: as §2, §3, §4

ADI-70330 = molecular target: T5, ADI-70330; test: SPR Carterra, yeast anti-ID
T5 construct: anti-CD3 antibody made in CHO cells, captured by anti-human Fc
T5 sequence (VH, as listed by the source limits assumed, chain 1 of 2): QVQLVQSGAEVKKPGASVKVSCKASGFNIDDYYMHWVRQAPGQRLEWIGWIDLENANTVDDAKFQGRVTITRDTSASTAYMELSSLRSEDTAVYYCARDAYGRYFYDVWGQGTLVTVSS
T5 sequence (VL, as listed by the source limits assumed, chain 2 of 2): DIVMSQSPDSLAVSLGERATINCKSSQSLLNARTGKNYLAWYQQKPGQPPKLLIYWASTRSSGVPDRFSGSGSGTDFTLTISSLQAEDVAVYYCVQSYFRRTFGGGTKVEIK
Protocol: as §2, §3, §4

ADI-67445 = molecular target: T6, ADI-67445; test: SPR Carterra, yeast anti-ID
T6 construct: anti-CD3 antibody made in CHO cells, captured by anti-human Fc
Protocol: as §2, §3, §4

CTL-62227 = molecular target: T7, CTL-62227; test: SPR Carterra, yeast anti-ID
T7 construct: also called odronextamab
T7 sequence (VH, as listed by the source, chain 1 of 2): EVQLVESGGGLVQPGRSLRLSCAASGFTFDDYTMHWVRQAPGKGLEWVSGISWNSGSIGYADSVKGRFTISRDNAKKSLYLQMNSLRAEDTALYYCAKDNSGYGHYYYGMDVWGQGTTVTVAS
T7 sequence (VL, as listed by the source, chain 2 of 2): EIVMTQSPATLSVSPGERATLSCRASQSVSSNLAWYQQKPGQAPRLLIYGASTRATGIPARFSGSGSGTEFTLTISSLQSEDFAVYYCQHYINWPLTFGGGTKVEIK
Protocol: as §2, §3, §4

CTL-62240 = molecular target: T8, CTL-62240; test: SPR Carterra, yeast anti-ID
T8 construct: also called ONO-4685
Protocol: as §2, §3, §4

CTL-62223 = molecular target: T9, CTL-62223; test: SPR Carterra, yeast anti-ID
T9 construct: also called mosunetuzumab
Protocol: as §2, §3, §4

ADI-70327 = molecular target: T10, ADI-70327; test: SPR Carterra, yeast anti-ID
T10 construct: anti-CD3 antibody made in CHO cells, captured by anti-human Fc
T10 sequence (VH, as listed by the source limits assumed, chain 1 of 2): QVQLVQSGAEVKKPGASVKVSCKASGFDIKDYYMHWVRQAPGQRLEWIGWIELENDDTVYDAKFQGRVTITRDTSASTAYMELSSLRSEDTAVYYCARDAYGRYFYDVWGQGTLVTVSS
Protocol: as §2, §3, §4

CTL-62228 = molecular target: T11, CTL-62228; test: SPR Carterra, yeast anti-ID
T11 construct: also called glofitamab
Protocol: as §2, §3, §4

ADI-26921 IgG = molecular target: T12, ADI-26921 IgG; test: SPR Carterra, yeast anti-ID
T12 construct: anti-CD3 IgG
Protocol: as §2, §3, §4

ADI-48587 = molecular target: T13, ADI-48587; test: SPR Carterra, yeast anti-ID
T13 construct: pH-dependent anti-CD3 antibody made in CHO cells
Protocol: as §2, §3, §4

ADI-74968 = molecular target: T14, ADI-74968; test: SPR Carterra avidity, yeast anti-ID
T14 construct: pH-dependent anti-CD3 antibody made in CHO cells
T14 sequence (VH, as listed by the source, chain 1 of 2): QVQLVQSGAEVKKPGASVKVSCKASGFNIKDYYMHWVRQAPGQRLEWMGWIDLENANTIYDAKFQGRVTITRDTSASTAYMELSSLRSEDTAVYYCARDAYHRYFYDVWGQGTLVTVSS
T14 sequence (VL, as listed by the source, chain 2 of 2): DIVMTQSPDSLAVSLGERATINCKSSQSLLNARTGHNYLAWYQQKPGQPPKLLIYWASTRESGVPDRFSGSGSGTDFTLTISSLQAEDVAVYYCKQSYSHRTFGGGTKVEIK
Protocol: as §2, §3, §4

ADI-48650 = molecular target: T15, ADI-48650; test: SPR Carterra avidity, yeast anti-ID
T15 construct: pH-dependent anti-CD3 antibody made in CHO cells
T15 sequence (VH, as listed by the source, chain 1 of 2): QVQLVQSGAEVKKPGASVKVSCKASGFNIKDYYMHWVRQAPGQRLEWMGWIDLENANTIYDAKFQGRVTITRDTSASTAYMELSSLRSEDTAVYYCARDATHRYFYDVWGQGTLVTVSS
T15 sequence (VL, as listed by the source, chain 2 of 2): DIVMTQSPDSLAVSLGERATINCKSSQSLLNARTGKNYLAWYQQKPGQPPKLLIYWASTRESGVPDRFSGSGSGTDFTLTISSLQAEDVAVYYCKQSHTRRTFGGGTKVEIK
Protocol: as §2, §3, §4

ADI-50024 = molecular target: T16, ADI-50024; test: SPR Carterra avidity, yeast anti-ID
T16 construct: anti-CD3 antibody made in CHO cells, captured by anti-human Fc
Protocol: as §2, §3, §4

ADI-76359 = molecular target: T17, ADI-76359; test: SPR Carterra avidity, yeast anti-ID
T17 construct: anti-CD3 antibody made in CHO cells, captured by anti-human Fc
T17 sequence (VH, as listed by the source, chain 1 of 2): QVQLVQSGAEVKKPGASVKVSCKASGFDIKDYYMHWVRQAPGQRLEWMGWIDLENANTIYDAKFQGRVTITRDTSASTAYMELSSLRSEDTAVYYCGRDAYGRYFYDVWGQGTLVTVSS
T17 sequence (VL, as listed by the source, chain 2 of 2): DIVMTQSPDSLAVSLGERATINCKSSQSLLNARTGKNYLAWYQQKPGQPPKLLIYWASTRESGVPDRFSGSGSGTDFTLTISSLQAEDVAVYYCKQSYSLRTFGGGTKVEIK
Protocol: as §2, §3, §4

ADI-76358 = molecular target: T18, ADI-76358; test: SPR Carterra avidity, yeast anti-ID
T18 construct: anti-CD3 antibody made in CHO cells, captured by anti-human Fc
T18 sequence (VH, as listed by the source, chain 1 of 2): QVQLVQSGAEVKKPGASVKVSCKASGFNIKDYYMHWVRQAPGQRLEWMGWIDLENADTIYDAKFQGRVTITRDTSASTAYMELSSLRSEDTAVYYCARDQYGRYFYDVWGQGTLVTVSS
T18 sequence (VL, as listed by the source, chain 2 of 2): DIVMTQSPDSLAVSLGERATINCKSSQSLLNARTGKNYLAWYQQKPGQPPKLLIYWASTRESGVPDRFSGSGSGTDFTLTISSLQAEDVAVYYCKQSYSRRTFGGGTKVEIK
Protocol: as §2, §3, §4

ADI-74966 = molecular target: T19, ADI-74966; test: SPR Carterra avidity, yeast anti-ID
T19 construct: pH-dependent anti-CD3 antibody made in CHO cells
Protocol: as §2, §3, §4

ADI-67450 = molecular target: T20, ADI-67450; test: SPR Carterra avidity, yeast anti-ID
T20 construct: anti-CD3 antibody made in CHO cells, captured by anti-human Fc
Protocol: as §2, §3, §4

ADI-74967 = molecular target: T21, ADI-74967; test: SPR Carterra avidity, yeast anti-ID
T21 construct: pH-dependent anti-CD3 antibody made in CHO cells
Protocol: as §2, §3, §4

ADI-48576 = molecular target: T22, ADI-48576; test: SPR Carterra avidity, yeast anti-ID
T22 construct: pH-dependent anti-CD3 antibody made in CHO cells
T22 sequence (VH, as listed by the source, chain 1 of 2): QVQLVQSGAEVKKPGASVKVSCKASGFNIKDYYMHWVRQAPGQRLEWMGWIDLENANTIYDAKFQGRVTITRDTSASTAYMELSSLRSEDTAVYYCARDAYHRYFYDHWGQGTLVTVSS
T22 sequence (VL, as listed by the source, chain 2 of 2): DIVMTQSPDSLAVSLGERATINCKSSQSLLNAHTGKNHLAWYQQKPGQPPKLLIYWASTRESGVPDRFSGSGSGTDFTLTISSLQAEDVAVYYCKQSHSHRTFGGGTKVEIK
Protocol: as §2, §3, §4

ADI-26916 IgG = molecular target: T23, ADI-26916 IgG; test: SPR Carterra avidity, yeast anti-ID
T23 construct: anti-CD3 IgG
Protocol: as §2, §3, §4

ADI-67447 = molecular target: T24, ADI-67447; test: SPR Carterra avidity, yeast anti-ID
T24 construct: anti-CD3 antibody made in CHO cells, captured by anti-human Fc
T24 sequence (VH, as listed by the source limits assumed, chain 1 of 2): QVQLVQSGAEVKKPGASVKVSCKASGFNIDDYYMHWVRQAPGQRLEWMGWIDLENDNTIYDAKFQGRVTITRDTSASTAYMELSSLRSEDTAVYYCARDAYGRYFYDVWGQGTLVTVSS
Protocol: as §2, §3, §4

ADI-76360 = molecular target: T25, ADI-76360; test: SPR Carterra avidity, yeast anti-ID
T25 construct: anti-CD3 antibody made in CHO cells, captured by anti-human Fc
T25 sequence (VH, as listed by the source, chain 1 of 2): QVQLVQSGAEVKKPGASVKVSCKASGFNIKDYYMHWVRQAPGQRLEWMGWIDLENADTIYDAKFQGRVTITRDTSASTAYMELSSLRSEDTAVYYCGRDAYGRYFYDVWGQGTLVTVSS
Protocol: as §2, §3, §4

ADI-76361 = molecular target: T26, ADI-76361; test: SPR Carterra avidity, yeast anti-ID
T26 construct: anti-CD3 antibody made in CHO cells, captured by anti-human Fc
Protocol: as §2, §3, §4

ADI-26924 = molecular target: T27, ADI-26924; test: SPR Carterra avidity, yeast anti-ID
T27 construct: anti-CD3 antibody made in CHO cells, captured by anti-human Fc
Protocol: as §2, §3, §4

ADI-26912 = molecular target: T28, ADI-26912; test: SPR Carterra avidity, yeast anti-ID
T28 construct: anti-CD3 antibody made in CHO cells, captured by anti-human Fc
T28 sequence (VH, as listed by the source, chain 1 of 2): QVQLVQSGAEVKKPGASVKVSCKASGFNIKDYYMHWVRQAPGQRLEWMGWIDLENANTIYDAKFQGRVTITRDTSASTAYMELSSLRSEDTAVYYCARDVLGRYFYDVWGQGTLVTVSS
Protocol: as §2, §3, §4

ADI-76362 = molecular target: T29, ADI-76362; test: SPR Carterra avidity, yeast anti-ID
T29 construct: anti-CD3 antibody made in CHO cells, captured by anti-human Fc
T29 sequence (VH, as listed by the source, chain 1 of 2): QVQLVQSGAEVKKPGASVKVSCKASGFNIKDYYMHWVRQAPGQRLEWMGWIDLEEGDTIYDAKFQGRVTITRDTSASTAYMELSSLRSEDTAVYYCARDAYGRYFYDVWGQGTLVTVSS
Protocol: as §2, §3, §4

ADI-26943 = molecular target: T30, ADI-26943; test: SPR Carterra avidity, yeast anti-ID
T30 construct: anti-CD3 antibody made in CHO cells, captured by anti-human Fc
T30 sequence (VH, as listed by the source, chain 1 of 2): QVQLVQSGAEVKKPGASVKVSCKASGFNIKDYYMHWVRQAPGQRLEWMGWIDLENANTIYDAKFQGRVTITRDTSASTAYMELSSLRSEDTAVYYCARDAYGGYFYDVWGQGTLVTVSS
T30 sequence (VL, as listed by the source, chain 2 of 2): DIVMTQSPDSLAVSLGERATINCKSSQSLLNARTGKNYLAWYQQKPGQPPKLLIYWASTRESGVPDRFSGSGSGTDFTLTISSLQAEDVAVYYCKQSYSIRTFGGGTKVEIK
Protocol: as §2, §3, §4

ADI-74965 = molecular target: T31, ADI-74965; test: SPR Carterra avidity, yeast anti-ID
T31 construct: pH-dependent anti-CD3 antibody made in CHO cells
T31 sequence (VL, as listed by the source, chain 2 of 2): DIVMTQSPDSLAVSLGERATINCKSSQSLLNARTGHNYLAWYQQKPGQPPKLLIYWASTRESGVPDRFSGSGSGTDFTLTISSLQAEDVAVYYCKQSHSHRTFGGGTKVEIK
Protocol: as §2, §3, §4

ADI-26913 IgG = molecular target: T32, ADI-26913 IgG; test: SPR Carterra avidity, yeast anti-ID
T32 construct: anti-CD3 IgG
T32 sequence (VH, as listed by the source limits assumed, chain 1 of 2): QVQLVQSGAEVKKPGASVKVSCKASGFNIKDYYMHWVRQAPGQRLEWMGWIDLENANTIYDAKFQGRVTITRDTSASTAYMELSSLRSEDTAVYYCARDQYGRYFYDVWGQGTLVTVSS
Protocol: as §2, §3, §4

ADI-48592 = molecular target: T33, ADI-48592; test: SPR Carterra avidity, yeast anti-ID
T33 construct: pH-dependent anti-CD3 antibody made in CHO cells
Protocol: as §2, §3, §4

ADI-26919 = molecular target: T34, ADI-26919; test: SPR Carterra avidity, yeast anti-ID
T34 construct: anti-CD3 antibody made in CHO cells, captured by anti-human Fc
T34 sequence (VH, as listed by the source limits assumed, chain 1 of 2): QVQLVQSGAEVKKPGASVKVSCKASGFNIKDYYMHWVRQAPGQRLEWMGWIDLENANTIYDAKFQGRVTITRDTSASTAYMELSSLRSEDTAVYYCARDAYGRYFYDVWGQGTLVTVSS
Protocol: as §2, §3, §4

ADI-22523 Fab = molecular target: T35, ADI-22523 Fab; test: BLI; tip anti-ID IgG, solution ADI-22523 Fab
T35 construct: anti-CD3 Fab by papain digestion of the IgG
Protocol: as §1

ADI-76357 = molecular target: T36, ADI-76357; test: SPR Carterra avidity, yeast anti-ID, *koff limit
T36 construct: anti-CD3 antibody made in CHO cells, captured by anti-human Fc
T36 sequence (VH, as listed by the source, chain 1 of 2): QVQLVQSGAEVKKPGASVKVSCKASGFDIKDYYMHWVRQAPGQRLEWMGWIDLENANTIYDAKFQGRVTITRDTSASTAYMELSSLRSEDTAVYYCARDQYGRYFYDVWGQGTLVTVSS
Protocol: as §2, §3, §4

ADI-26906 IgG = molecular target: T37, ADI-26906 IgG; test: SPR Carterra avidity, yeast anti-ID, *koff limit
T37 construct: anti-CD3 IgG
Protocol: as §2, §3, §4

ADI-26920 IgG = molecular target: T38, ADI-26920 IgG; test: SPR Carterra avidity, yeast anti-ID, *koff limit
T38 construct: anti-CD3 IgG
Protocol: as §2, §3, §4

B1: ADI-34142 (antibody, V domains shown)
VH: EVQLLESGGGLVQPGGSLRLSCAASGFTFSSYAMSWVRQAPGKGLEWVSTISGSGGSTYYADSVKGRFTISRDNSKNTLYLQMNSLRAEDTAVYYCARLGGRRGSGSSYYYYYGMDVWGQGTTVTVSS
VL: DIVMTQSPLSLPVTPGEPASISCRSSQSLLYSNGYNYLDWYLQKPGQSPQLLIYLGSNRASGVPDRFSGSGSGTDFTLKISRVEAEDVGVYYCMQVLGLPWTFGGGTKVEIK
notes: anti-ID IgG
Kd (ADI-22523 IgG): 4.11 nM
binding result (ADI-26915): no binding (tested: up to 200 nM)
binding result (ADI-26909): no binding (tested: up to 200 nM)
binding result (ADI-70326): no binding (tested: up to 200 nM)
binding result (ADI-70330): no binding (tested: up to 200 nM)
binding result (ADI-67445): no binding (tested: up to 200 nM)
binding result (CTL-62227): no binding (tested: up to 200 nM)
binding result (CTL-62240): no binding (tested: up to 200 nM)
binding result (CTL-62223): no binding (tested: up to 200 nM)
binding result (ADI-70327): no binding (tested: up to 200 nM)
binding result (CTL-62228): no binding (tested: up to 200 nM)
binding result (ADI-26921 IgG): no binding (tested: up to 200 nM)
binding result (ADI-48587): no binding (tested: up to 200 nM)
Kd (ADI-74968): 45 nM
binding result (ADI-48650): binds
binding result (ADI-50024): binds
Kd (ADI-76359): 7.3 nM
binding result (ADI-76358): binds
binding result (ADI-74966): binds
binding result (ADI-67450): binds
binding result (ADI-74967): binds
Kd (ADI-48576): 76 nM
Kd (ADI-26916 IgG): 21 nM
Kd (ADI-67447): 21 nM
Kd (ADI-76360): 36 nM
binding result (ADI-76361): binds
Kd (ADI-26924): 32 nM
binding result (ADI-26912): binds
binding result (ADI-76362): binds
Kd (ADI-26943): 6.5 nM
binding result (ADI-74965): binds
Kd (ADI-26913 IgG): 11 nM
binding result (ADI-48592): binds
Kd (ADI-26919): 18 nM
Kd (ADI-22523 Fab): 14.7 nM
Kd (ADI-76357): 5.7 nM
Kd (ADI-26906 IgG): 12 nM
Kd (ADI-26920 IgG): 6.1 nM
